According to US20180036256A1 (ALBERT LUDWIGS UNIVERSIT T FREIBURG, published 2018):
Values belong to the binder of their own block, whether it stands above or below them. Square brackets hold non-standard residues; d marks the D form. Ends that are not written are not given here. Lys(Me2) = CN(C)CCCC[C@H](N)C(=O)O

Key:
Flag-LSD1 K114A = biological target: T1, Flag-LSD1 K114A (UniProt O60341 1-852, limits assumed); assay: co-immunoprecipitation with anti-Flag antibody from transfected 293T cells without G9A, Western blot decorated with anti-CHD1
T1 construct: Obtained by site directed mutagenesis of Flag-LSD1; not shown: Flag tag

CHD1aa270-443 [1] = biological target: T2, CHD1aa270-443 (UniProt O14646 270-443); assay: co-crystal structure of the CHD1 double chromodomain with the LSD1 K114me2 peptide
T2 construct: Recombinant fragment; also called CHD1 double chromodomain fragment
T2 sequence (looked up): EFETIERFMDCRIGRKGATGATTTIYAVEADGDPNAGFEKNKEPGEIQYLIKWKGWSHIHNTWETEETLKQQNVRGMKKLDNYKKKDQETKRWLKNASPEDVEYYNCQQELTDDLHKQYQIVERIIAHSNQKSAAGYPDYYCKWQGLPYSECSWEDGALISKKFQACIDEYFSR
Experimental: Crystals (space group P21212) were grown by sitting drop vapour diffusion at 4° C. in buffer containing 100 mM Hepes pH 7.5, 0.2 M L-proline, 10% (w/v) PEG3350. Prior to flash cooling in liquid nitrogen, crystals were cryoprotected in reservoir solution with 20% (v/v) ethylene glycol. Initial X-ray diffraction data were collected at the PXI beamline at the Swiss Light Source at 1=1.000 Å with a Pilatus detector. […] Data were processed and analyzed with XDS28 and Aimless²⁹. The structure was solved by molecular replacement with Phaser³⁰ using 2B2W as a search model. Manual building and refinement were performed using Coot31 and Refmac532 in the CCP4 program suite³³.

CHD1 D425A = biological target: T3, CHD1 D425A (UniProt O14646 270-443, limits assumed); assay: isothermal titration calorimetry (data not shown)
T3 construct: also called D425A mutation in CHD1
T3 sequence (looked up): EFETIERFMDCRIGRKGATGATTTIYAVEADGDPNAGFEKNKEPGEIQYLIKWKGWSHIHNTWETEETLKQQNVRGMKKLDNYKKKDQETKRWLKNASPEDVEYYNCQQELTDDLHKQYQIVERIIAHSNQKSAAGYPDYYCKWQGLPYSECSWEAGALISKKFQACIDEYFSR

CHD1aa270-443 [2] = biological target: T2, CHD1aa270-443; assay: isothermal titration calorimetry (data not shown)

binding result (Flag-LSD1 K114A): no binding
B1: endogenous CHD1 (enzyme, human, UniProt O14646 1-1710, looked up)
chain: MNGHSDEESVRNSSGESSQSDDDSGSASGSGSGSSSGSSSDGSSSQSGSSDSDSGSESGSQSESESDTSRENKVQAKPPKVDGAEFWKSSPSILAVQRSAILKKQQQQQQQQQHQASSNSGSEEDSSSSEDSDDSSSEVKRKKHKDEDWQMSGSGSPSQSGSDSESEEEREKSSCDETESDYEPKNKVKSRKPQNRSKSKNGKKILGQKKRQIDSSEEDDDEEDYDNDKRSSRRQATVNVSYKEDEEMKTDSDDLLEVCGEDVPQPEEEEFETIERFMDCRIGRKGATGATTTIYAVEADGDPNAGFEKNKEPGEIQYLIKWKGWSHIHNTWETEETLKQQNVRGMKKLDNYKKKDQETKRWLKNASPEDVEYYNCQQELTDDLHKQYQIVERIIAHSNQKSAAGYPDYYCKWQGLPYSECSWEDGALISKKFQACIDEYFSRNQSKTTPFKDCKVLKQRPRFVALKKQPSYIGGHEGLELRDYQLNGLNWLAHSWCKGNSCILADEMGLGKTIQTISFLNYLFHEHQLYGPFLLVVPLSTLTSWQREIQTWASQMNAVVYLGDINSRNMIRTHEWTHHQTKRLKFNILLTTYEILLKDKAFLGGLNWAFIGVDEAHRLKNDDSLLYKTLIDFKSNHRLLITGTPLQNSLKELWSLLHFIMPEKFSSWEDFEEEHGKGREYGYASLHKELEPFLLRRVKKDVEKSLPAKVEQILRMEMSALQKQYYKWILTRNYKALSKGSKGSTSGFLNIMMELKKCCNHCYLIKPPDNNEFYNKQEALQHLIRSSGKLILLDKLLIRLRERGNRVLIFSQMVRMLDILAEYLKYRQFPFQRLDGSIKGELRKQALDHFNAEGSEDFCFLLSTRAGGLGINLASADTVVIFDSDWNPQNDLQAQARAHRIGQKKQVNIYRLVTKGSVEEDILERAKKKMVLDHLVIQRMDTTGKTVLHTGSAPSSSTPFNKEELSAILKFGAEELFKEPEGEEQEPQEMDIDEILKRAETHENEPGPLTVGDELLSQFKVANFSNMDEDDIELEPERNSKNWEEIIPEDQRRRLEEEERQKELEEIYMLPRMRNCAKQISFNGSEGRRSRSRRYSGSDSDSISEGKRPKKRGRPRTIPRENIKGFSDAEIRRFIKSYKKFGGPLERLDAIARDAELVDKSETDLRRLGELVHNGCIKALKDSSSGTERTGGRLGKVKGPTFRISGVQVNAKLVISHEEELIPLHKSIPSDPEERKQYTIPCHTKAAHFDIDWGKEDDSNLLIGIYEYGYGSWEMIKMDPDLSLTHKILPDDPDKKPQAKQLQTRADYLIKLLSRDLAKKEALSGAGSSKRRKARAKKNKAMKSIKVKEEIKSDSSPLPSEKSDEDDDKLSESKSDGRERSKKSSVSDAPVHITASGEPVPISEESEELDQKTFSICKERMRPVKAALKQLDRPEKGLSEREQLEHTRQCLIKIGDHITECLKEYTNPEQIKQWRKNLWIFVSKFTEFDARKLHKLYKHAIKKRQESQQNSDQNSNLNPHVIRNPDVERLKENTNHDDSSRDSYSSDRHLTQYHDHHKDRHQGDSYKKSDSRKRPYSSFSNGKDHRDWDHYKQDSRYYSDREKHRKLDDHRSRDHRSNLEGSLKDRSHSDHRSHSDHRLHSDHRSSSEYTHHKSSRDYRYHSDWQMDHRASSSGPRSPLDQRSPYGSRSPFEHSVEHKSTPEHTWSSRKT
notes: Endogenous protein in cell extracts; also called endogenously expressed CHD1

binding result (CHD1aa270-443 [1]): binds
B2: LSD1aa108-119 K114me2 peptide (peptide, UniProt O60341 108-119, looked up)
peptide: RRTSRR[Lys(Me2)]RAKVE
notes: range 108-119; Peptide used for co-crystallisation; only residues 110-116 were modelled in the electron density; also called LSD1aa110-116 K114me2 (residues modelled in the structure); LSD1 K114me2 peptide

binding result (CHD1 D425A): no binding
B3: LSD1aa104-127 K114me2 peptide (peptide, UniProt O60341 104-127, looked up)
peptide: TPEGRRTSRR[Lys(Me2)]RAKVEYREMDESL
notes: range 104-127; Synthetic peptide, used on the microarray and in ITC; also called LSD1 K114me2 peptide; dimethylated LSD1 peptide

binding result (CHD1aa270-443 [2]): no binding
Binder: TPEGRRTSRA[Lys(Me2)]RAKVEYREMDESL (peptide, UniProt O60341 104-127, looked up, also called LSD1 R113A K114me2 peptide) [LSD1 K114me2 peptide with R113 mutated to alanine]
